Data as given in patent publication US20200407424A1 (FRAUNHOFER GESELLSCHAFT ZUR F RDERUNG DER ANGEWANDTEN …, published 2020).
Like-named read-outs stand apart in the source and are kept apart here. Square brackets hold non-standard residues; d marks the D form. Ends that are not written are not given here. Cit = NC(=O)NCCC[C@H](N)C(=O)O

Tests used:
Assay in all cases: in vitro binding assay
[1] = biological target: T1, recombinant MHC class II protein of the HLA DRB1 1001 genotype (human)
T1 construct: construct not described

[2] = biological target: T2, recombinant MHC class II protein of the HLA DRB1 0408 genotype (human)
T2 construct: construct not described

[3] = biological target: T3, recombinant MHC class II protein of the HLA DRB1 0101 genotype (human)
T3 construct: construct not described

[4] = biological target: T4, recombinant MHC class II protein of the HLA DRB1 0401 genotype (human)
T4 construct: construct not described; also called HLA-DR0401

[5] = biological target: T5, recombinant MHC class II protein of the HLA DRB1 0404 genotype (human)
T5 construct: construct not described

[6] = biological target: T6, recombinant MHC class II protein of the HLA DRB1 0405 genotype (human)
T6 construct: construct not described

[7] = biological target: T3, recombinant MHC class II protein of the …; remark: listed apart in the source
[8] = biological target: T4, recombinant MHC class II protein of the …; remark: listed apart in the source
[9] = biological target: T5, recombinant MHC class II protein of the …; remark: listed apart in the source
[10] = biological target: T6, recombinant MHC class II protein of the …; remark: listed apart in the source
[11] = biological target: T4, recombinant MHC class II protein of the …; remark: listed apart in the source
[12] = biological target: T5, recombinant MHC class II protein of the …; remark: listed apart in the source
[13] = biological target: T6, recombinant MHC class II protein of the …; remark: listed apart in the source

binding result [1]	binding result [2]	binding result [3]	binding result [4]	binding result [5]	binding result [6]	binding result [7]	binding result [8]	binding result [9]	binding result [10]	Binder	other results
no binding	binds	binds	binds	binds	binds	–	–	–	–	KEGLELLKTAIGKAG [a-enolase peptide ref no 45]	–
no binding	binds	no binding	binds	no binding	binds	–	–	–	–	KGVPLY[Cit]HIADLAGN [citrullinated a-enolase peptide ref no 299]	–
–	–	–	–	–	–	binds	binds	no binding	no binding	YAT[Cit]SSAV[Cit]L[Cit]SSVP [citrullinated vimentin peptide ref no 105]	–
–	–	–	–	–	–	binds	binds	binds	binds	SAV[Cit]L[Cit]SSVPGV[Cit]LL [citrullinated vimentin peptide ref no 106]	–
–	–	–	–	–	–	–	–	–	–	LAGQRGIVGLPGQRG [type II collagen peptide ref no 241]	binding result [11]: no binding; binding result [12]: binds; binding result [13]: binds
–	–	–	–	–	–	binds	binds	binds	no binding	MSTRSVSSSSYRRMF [vimentin peptide ref no 1]	–
no binding	no binding	binds	no binding	binds	no binding	–	–	–	–	SERLAKYNQLLRIEE [a-enolase peptide ref no 81]	–
binds	no binding	binds	no binding	binds	binds	–	–	–	–	MSILKIHAREIFDSR [a-enolase peptide ref no 1]	–
no binding	binds	binds	no binding	binds	no binding	–	–	–	–	VEHINKTIAPALVSK [a-enolase peptide ref no 14]	–
–	–	–	–	–	–	–	–	–	–	PQGARGFPGTPGLPG [type II collagen peptide ref no 100]	binding result [12]: binds
–	–	–	–	–	–	–	–	–	–	GHRGFTGLQGLPGPP [type II collagen peptide ref no 272]	binding result [13]: binds
binds	binds	binds	no binding	no binding	binds	–	–	–	–	RYMGKGVSKAVEHIN [a-enolase peptide ref no 12]	–
–	–	–	–	–	–	no binding	binds	no binding	no binding	DNASLA[Cit]LDLE[Cit]KVE [citrullinated vimentin peptide ref no 133]	–
–	–	–	–	–	–	–	–	–	–	GIVGLPGQ[Cit]GE[Cit]GFP [citrullinated type II collagen peptide ref no 411]	binding result [11]: binds; binding result [12]: binds; binding result [13]: binds
–	–	–	–	–	–	–	–	–	–	PGLQGMPGE[Cit]GAAGI [citrullinated type II collagen peptide ref no 386]	binding result [11]: binds; binding result [12]: binds
no binding	no binding	binds	no binding	no binding	binds	–	–	–	–	ANFREAMRIGAEVYH [a-enolase peptide ref no 36]	–
binds	binds	binds	binds	binds	binds	–	–	–	–	KSFIKDYPVVSIEDP [a-enolase peptide ref no 57]	–
–	–	–	–	–	–	binds	binds	binds	no binding	SPGGVYAT[Cit]SSAV[Cit]L [citrullinated vimentin peptide ref no 104]	–

binding result [1]	binding result [2]	binding result [3]	binding result [4]	binding result [5]	binding result [6]	binding result [7]	binding result [8]	binding result [9]	binding result [10]	Binder	other results
no binding	binds	binds	binds	binds	binds	–	–	–	–	KGVPLYRHIADLAGN [a-enolase peptide ref no 26]	–
–	–	–	–	–	–	–	–	–	–	GPPGATGFPGAAGRV [type II collagen peptide ref no 224]	binding result [12]: binds
–	–	–	–	–	–	binds	binds	no binding	no binding	FKNT[Cit]TNEKVELQEL [citrullinated vimentin peptide ref no 111]	–
–	–	–	–	–	–	–	–	–	–	PSGFQGLPGPPGPPG [type II collagen peptide ref no 178]	binding result [13]: binds
–	–	–	–	–	–	–	–	–	–	VMGFPGPKGANGEPG [type II collagen peptide ref no 166]	binding result [12]: binds
no binding	no binding	binds	no binding	binds	no binding	–	–	–	–	GVSKAVEHINKTIAP [a-enolase peptide ref no 13]	–
no binding	binds	binds	no binding	no binding	binds	–	–	–	–	GAPCRSERLAKYNQL [a-enolase peptide ref no 80]	–
no binding	binds	binds	no binding	binds	no binding	–	–	–	–	KTIAPALVSKKLNVT [a-enolase peptide ref no 15]	–
–	–	–	–	–	–	binds	binds	binds	binds	YRRMFGGPGTASRPS [vimentin peptide ref no 3]	–
–	–	–	–	–	–	no binding	binds	binds	no binding	VDQLTNDKARVEVER [vimentin peptide ref no 33]	–
–	–	–	–	–	–	no binding	no binding	binds	no binding	THSK[Cit]TLLIKTVET[Cit] [citrullinated vimentin peptide ref no 166]	–
–	–	–	–	–	–	–	–	–	–	GDRGETGAVGAPGAP [type II collagen peptide ref no 257]	binding result [12]: binds
no binding	binds	binds	binds	no binding	binds	–	–	–	–	AEVYHNLKNVIKEKY [a-enolase peptide ref no 38]	–
no binding	no binding	no binding	no binding	no binding	binds	–	–	–	–	LLKVNQIGSVTESLQ [a-enolase peptide ref no 69]	–
–	–	–	–	–	–	no binding	binds	no binding	no binding	GVXLLQDSVDFSLAD (citrulline (Xaa) at 3) [citrullinated vimentin peptide ref no 108]	–
–	–	–	–	–	–	–	–	–	–	PGLQGMPGERGAAGI [type II collagen peptide ref no 195]	binding result [12]: binds
–	–	–	–	–	–	no binding	binds	no binding	no binding	RKLLEGEESRISLPL [vimentin peptide ref no 81]	–
